Results on one molecule are retold here after patent US20160326237A1 (ANNEXON, published 2016).

In experiment [1] the target is T1, human C1q (human, UniProt P02745 23-245; P02746 28-253; P02747 29-245).
T1 construct: Native C1q (about 460 kDa) holds several copies of each chain; also called hC1q; C1Q antigen
Kind of experiment: BLI (OCTET).

Experiment [2] concerns the target T2, mouse C1q (mouse, UniProt P14106 26-253). Kind of experiment: BLI (OCTET).
For experiment [3], the target named is T1, human C1q. Kind of experiment: BLI (OCTET), C1q immobilised, antibody 2.0 ug/ml.
Experiment [4] deals with T2, mouse C1q. Kind of experiment: BLI (OCTET), C1q immobilised, antibody 2.0 ug/ml.

T2 sequence (chain, as listed by the source, chain 1 of 3): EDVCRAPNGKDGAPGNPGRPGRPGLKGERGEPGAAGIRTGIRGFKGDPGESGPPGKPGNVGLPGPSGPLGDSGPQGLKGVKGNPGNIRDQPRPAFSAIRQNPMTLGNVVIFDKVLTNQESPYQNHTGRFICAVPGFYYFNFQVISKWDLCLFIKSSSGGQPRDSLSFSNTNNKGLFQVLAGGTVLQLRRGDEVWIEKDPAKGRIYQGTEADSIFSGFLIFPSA
T2 sequence (P14106 26-253, chain 2 of 3): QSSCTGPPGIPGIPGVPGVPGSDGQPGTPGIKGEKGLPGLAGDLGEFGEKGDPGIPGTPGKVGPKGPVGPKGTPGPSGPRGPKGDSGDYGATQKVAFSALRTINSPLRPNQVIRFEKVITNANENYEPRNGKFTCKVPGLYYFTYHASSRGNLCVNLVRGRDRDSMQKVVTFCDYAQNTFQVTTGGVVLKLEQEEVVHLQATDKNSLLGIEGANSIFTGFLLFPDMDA
T2 sequence (chain, as listed by the source, chain 3 of 3): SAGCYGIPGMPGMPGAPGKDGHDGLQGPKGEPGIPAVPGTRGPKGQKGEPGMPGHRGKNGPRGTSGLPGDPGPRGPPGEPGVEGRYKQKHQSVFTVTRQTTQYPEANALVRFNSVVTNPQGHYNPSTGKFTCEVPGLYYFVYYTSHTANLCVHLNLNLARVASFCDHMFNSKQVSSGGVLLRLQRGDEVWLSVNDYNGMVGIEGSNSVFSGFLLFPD
T1 sequence (P02745 23-245 limits assumed, chain 1 of 3): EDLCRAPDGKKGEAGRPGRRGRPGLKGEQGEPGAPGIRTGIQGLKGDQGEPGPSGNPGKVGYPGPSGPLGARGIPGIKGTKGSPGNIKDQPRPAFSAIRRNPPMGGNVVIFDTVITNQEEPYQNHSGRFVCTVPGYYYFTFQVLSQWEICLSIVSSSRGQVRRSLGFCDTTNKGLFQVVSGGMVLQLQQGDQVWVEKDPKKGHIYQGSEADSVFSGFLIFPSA
T1 sequence (P02746 28-253 limits assumed, chain 2 of 3): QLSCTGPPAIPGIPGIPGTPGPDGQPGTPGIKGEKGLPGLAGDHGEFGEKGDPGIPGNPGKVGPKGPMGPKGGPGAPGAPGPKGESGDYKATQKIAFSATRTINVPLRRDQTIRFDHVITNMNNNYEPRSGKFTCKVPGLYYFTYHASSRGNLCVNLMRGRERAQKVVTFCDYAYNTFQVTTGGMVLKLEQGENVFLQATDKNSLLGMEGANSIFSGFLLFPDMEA
T1 sequence (P02747 29-245 limits assumed, chain 3 of 3): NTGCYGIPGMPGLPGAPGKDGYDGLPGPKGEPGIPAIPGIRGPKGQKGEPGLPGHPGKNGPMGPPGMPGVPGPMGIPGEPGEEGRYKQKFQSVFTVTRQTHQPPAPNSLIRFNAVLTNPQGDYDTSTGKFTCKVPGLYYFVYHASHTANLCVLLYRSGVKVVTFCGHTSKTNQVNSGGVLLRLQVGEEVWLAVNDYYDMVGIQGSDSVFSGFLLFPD

B1: murine anti-human C1q monoclonal antibody M1 (antibody)
chain 1: QVQLQQPGAELVKPGASVKLSCKSSGYHFTSYWMHWVKQRPGQGLEWIGVIHPNSGSINYNEKFESKATLTVDKSSSTAYMQLSSLTSEDSAVYYCAGERDSTEVLPMDYWGQGTSVTVSS
chain 2: DVQITQSPSYLAASPGETITINCRASKSINKYLAWYQEKPGKTNKLLIYSGSTLQSGIPSRFSGSGSGTDFTLTISSLEPEDFAMYYCQQHNEYPLTFGAGTKLELK
Consider B1, for which the Kd with human C1q [1] was under 0.1 nM; in the experiment with mouse C1q [2], under 0.1 nM; in the experiment with human C1q [3], 0.0128 nM; in the experiment with mouse C1q [4] it was 0.0323 nM. Besides, the values for the dissociation rate constant (koff) with human C1q [3] and with mouse C1q [4] were 6.31e-05 s⁻¹ and 5.84e-05 s⁻¹, respectively. In addition, the values for the kon with human C1q [3] and with mouse C1q [4] were 5.18e+06 M⁻¹ s⁻¹ and 1.81e+06 M⁻¹ s⁻¹, respectively.
